Data on three substances can be found in paper PMC4526660.

Test [1] addresses Phosphatase and tensin homolog deleted on chromosome 10 (PTEN) (African green monkey (endogenous in Vero)). Description: co-IP; immunoprecipitation with PTEN, Rak or β-arrestin antibodies from Vero cells, mock, ARV-infected or p17-transfected, also with Rak shRNA, Rock-1 shRNA, Y-27632 or TBB; 500 ug cellular proteins with 4 ug antibody at 4°C overnight; Western blot; amounts normalized to mock controls. In general terms: In western blotting, separated proteins are transferred to a membrane and probed.

Test [2] shares this target. Described as above. This is another data set of the same source.

Several values for one entry are separate records, joined by “and”; a condition that tells them apart may be missing. Identical values can stand only once. Like-named read-outs stand apart in the source and are kept apart here.

Rak, sequence (P42685 whole entry): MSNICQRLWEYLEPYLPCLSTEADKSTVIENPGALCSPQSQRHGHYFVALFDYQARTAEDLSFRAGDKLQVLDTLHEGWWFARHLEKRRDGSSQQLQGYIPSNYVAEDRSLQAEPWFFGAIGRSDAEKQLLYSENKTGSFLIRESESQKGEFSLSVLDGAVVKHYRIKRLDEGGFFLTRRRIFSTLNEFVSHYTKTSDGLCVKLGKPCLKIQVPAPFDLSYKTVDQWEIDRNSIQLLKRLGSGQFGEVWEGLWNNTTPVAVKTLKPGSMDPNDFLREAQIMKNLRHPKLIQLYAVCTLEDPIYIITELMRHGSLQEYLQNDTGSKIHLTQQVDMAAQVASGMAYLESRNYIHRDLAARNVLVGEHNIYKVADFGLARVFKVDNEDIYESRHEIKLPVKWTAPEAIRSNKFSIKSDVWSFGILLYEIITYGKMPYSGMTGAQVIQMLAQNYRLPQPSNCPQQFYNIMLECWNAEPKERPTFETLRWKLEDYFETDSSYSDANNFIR

Consider β-arrestin (natural protein), for which, in test [1], the fold increase of β-arrestin-PTEN association against mock, ARV-infected cells was determined as 3.5 fold and the fold increase of β-arrestin-PTEN association against mock, p17-transfected cells is 6 fold.
Regarding E3 ligase NEDD4-1 (natural protein), the other in test [1] is 2.8 fold and 3.1 fold; in test [2], 2.35 fold and 2.45 fold.
Regarding “Rak (from UniProt P42685-1 1-505) (natural protein)”, in test [1], the fold increase of Rak-PTEN association against mock, ARV-infected cells is 3.8 fold and the fold increase of Rak-PTEN association against mock, p17-transfected cells came out at 4.5 fold.
